The numbers were not newly measured in paper PMC11168107, which cites them from elsewhere.

pKd: −log10 of the molar value. Read-outs that look alike come from different tables or passages of the source.

Series [1] concerns the target Bin1 SH3 (Homo sapiens) (UniProt O00499).
For series [2] the target is unchanged. The source holds these as a separate data set.

Sequence of UniProt O00499 (O00499 517-593): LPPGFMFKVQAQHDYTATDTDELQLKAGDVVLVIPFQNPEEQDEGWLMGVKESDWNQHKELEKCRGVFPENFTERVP

Regarding MYC 1-88 (from UniProt P01106), in the series with Bin1 SH3 (Homo sapiens) [1], the negative logarithm of the Kd (pKd) was 4.48.
Consider MYC 55-68 (from UniProt P01106), for which, in the series with Bin1 SH3 (Homo sapiens) [2], the negative-log Kd (pKd) is 5.38.

As a reminder, the pKd is the Kd on a negative log10 scale, so that one unit is a factor of ten.
